# From US20260152552A1 (CURON BIOPHARMACEUTICAL SHANGHAI, published 2026)
# Residue numbers refer to the chain shown, from its start.
# B1: humanized anti-L1CAM antibody hz49E10H1H7L6 (antibody, V domains shown)
# VH: QVQLQESGPGLVKPSQTLSLTCTVSGGSISSDYAWNWIRQPPGKGLEWMGYITYSGTTTYNPSLKSRITISRDTSKNQFSLKLSSVTAADTAVYYCTLDHYGNYAYFDYWGQGTTVTVSS
# VL: DIQMTQSPSSLSASVGDRVTITCRASSSVSFMHWYQQKPGKAPKPWIYASSNLVSGVPSRFSGSGSGTDFTLTISSLQPEDFATYYCQQWSSNPSTFGGGTKVEIK
# B2: humanized anti-L1CAM antibody hz103E9B3H6L5 (antibody, V domains shown)
# VH: EVQLVQSGAEVKKPGASVKVSCKASGYTFTSYTMHWVRQAPGQGLEWMGDINPNYGGTSYNEKFKDRATMTTDTSTSTAYMELRSLRSDDTAVYYCAREGATGTWYFDVWGQGTTVTVSS
# VL: B1 VL with R24S, H33F, W46L, A49L, S50T, V54A, S91R, S95P
# B3: humanized anti-L1CAM antibody hz103E9B3H7L4 (antibody, V domains shown)
# VH: B2 VH with M48I, M70L
# VL: B1 VL with R24S, H33F, P45L, W46L, A49L, S50T, V54A, S91R, S95P
# B4: humanized anti-L1CAM antibody hz49E10H1H5L7 (antibody, V domains shown)
# VH: B1 VH with Q1D, T97A, L98R
# VL: B1 VL with D1Q, F70Y
# B5: humanized anti-L1CAM antibody hz103E9B3H9L4 (antibody, V domains shown)
# VH: B2 VH with M48I, M70L, T72V, T74K
# VL: B1 VL with R24S, H33F, P45L, W46L, A49L, S50T, V54A, S91R, S95P
# B6: humanized anti-L1CAM antibody hz49E10H1H5L5 (antibody, V domains shown)
# VH: B1 VH with Q1D, T97A, L98R
# VL: B1 VL with P45L, W46L
# B7: humanized anti-L1CAM antibody hz103E9B3H7L6 (antibody, V domains shown)
# VH: B2 VH with M48I, M70L
# VL: B1 VL with R24S, H33F, A49L, S50T, V54A, S91R, S95P
# B8: humanized anti-L1CAM antibody hz49E10H1H6L6 (antibody, V domains shown)
# VH: B1 VH with Q1D, M49I, I68V
# VL: B1 VL
# B9: humanized anti-L1CAM antibody hz49E10H1H4L7 (antibody, V domains shown)
# VH: B1 VH with M49I, I68V, R72V, T97A, L98R
# VL: B1 VL with D1Q, F70Y
# B10: humanized anti-L1CAM antibody hz103E9B3H5L4 (antibody, V domains shown)
# VH: B2 VH with A68V
# VL: B1 VL with R24S, H33F, P45L, W46L, A49L, S50T, V54A, S91R, S95P
# B11: humanized anti-L1CAM antibody hz49E10H1H8L6 (antibody, V domains shown)
# VH: B1 VH with Q1D, K44N
# VL: B1 VL
# B12: humanized anti-L1CAM antibody hz103E9B3H5L6 (antibody, V domains shown)
# VH: B2 VH with A68V
# VL: B1 VL with R24S, H33F, A49L, S50T, V54A, S91R, S95P
# B13: humanized anti-L1CAM antibody hz103E9B3H7L5 (antibody, V domains shown)
# VH: B2 VH with M48I, M70L
# VL: B1 VL with R24S, H33F, W46L, A49L, S50T, V54A, S91R, S95P
# B14: humanized anti-L1CAM antibody hz103E9B3H9L5 (antibody, V domains shown)
# VH: B2 VH with M48I, M70L, T72V, T74K
# VL: B1 VL with R24S, H33F, W46L, A49L, S50T, V54A, S91R, S95P
# B15: humanized anti-L1CAM antibody hz49E10H1H8L7 (antibody, V domains shown)
# VH: B1 VH with Q1D, K44N
# VL: B1 VL with D1Q, F70Y
# B16: humanized anti-L1CAM antibody hz49E10H1H4L6 (antibody, V domains shown)
# VH: B1 VH with M49I, I68V, R72V, T97A, L98R
# VL: B1 VL
# B17: humanized anti-L1CAM antibody hz103E9B3H6L4 (antibody, V domains shown)
# VH: B2 VH
# VL: B1 VL with R24S, H33F, P45L, W46L, A49L, S50T, V54A, S91R, S95P
# B18: humanized anti-L1CAM antibody hz49E10H1H7L7 (antibody, V domains shown)
# VH: B1 VH
# VL: B1 VL with D1Q, F70Y
# B19: humanized anti-L1CAM antibody hz49E10H1H8L5 (antibody, V domains shown)
# VH: B1 VH with Q1D, K44N
# VL: B1 VL with P45L, W46L
# B20: humanized anti-L1CAM antibody hz103E9B3H6L6 (antibody, V domains shown)
# VH: B2 VH
# VL: B1 VL with R24S, H33F, A49L, S50T, V54A, S91R, S95P
# B21: humanized anti-L1CAM antibody hz49E10H1H5L6 (antibody, V domains shown)
# VH: B1 VH with Q1D, T97A, L98R
# VL: B1 VL
# B22: humanized anti-L1CAM antibody hz49E10H1H6L7 (antibody, V domains shown)
# VH: B1 VH with Q1D, M49I, I68V
# VL: B1 VL with D1Q, F70Y
# B23: humanized anti-L1CAM antibody hz49E10H1H4L5 (antibody, V domains shown)
# VH: B1 VH with M49I, I68V, R72V, T97A, L98R
# VL: B1 VL with P45L, W46L
# B24: humanized anti-L1CAM antibody hz103E9B3H5L5 (antibody, V domains shown)
# VH: B2 VH with A68V
# VL: B1 VL with R24S, H33F, W46L, A49L, S50T, V54A, S91R, S95P
# B25: humanized anti-L1CAM antibody hz49E10H1H6L5 (antibody, V domains shown)
# VH: B1 VH with Q1D, M49I, I68V
# VL: B1 VL with P45L, W46L
# B26: humanized anti-L1CAM antibody hz49E10H1H7L5 (antibody, V domains shown)
# VH: B1 VH
# VL: B1 VL with P45L, W46L
# B27: humanized anti-L1CAM antibody hz103E9B3H9L6 (antibody, V domains shown)
# VH: B2 VH with M48I, M70L, T72V, T74K
# VL: B1 VL with R24S, H33F, A49L, S50T, V54A, S91R, S95P
# B28: humanized anti-L1CAM antibody hz26A12C1H3L2 (antibody, V domains shown)
# VH: QVQLVQSGAEVKKPGSSVKVSCKASGYTFTNYWIQWVRQAPGQGLEWIGYINPSTYYSDYAQKFQGRVTLTADESTSTAYMELSSLRSEDTAVYYCARRQFGLPLFDYWGQGTTVTVSS
# VL: DIQMTQSPSSLSASVGDRVTITCRASQDVGTAVAWYQQKPGKVPKLLIYWASTLHSGVPSRFSGSGSGTDFTLTISSLQPEDVATYYCQQYSNYPLTFGGGTKVEIK
# B29: humanized anti-L1CAM antibody hz26A12C1H2L3 (antibody, V domains shown)
# VH: B28 VH with I48M, L70I
# VL: B28 VL with Y87F
# B30: humanized anti-L1CAM antibody hz26A12C1H4L2 (antibody, V domains shown)
# VH: B28 VH with A61N, E74K
# VL: B28 VL
# B31: humanized anti-L1CAM antibody hz26A12C1H2L2 (antibody, V domains shown)
# VH: B28 VH with I48M, L70I
# VL: B28 VL
# B32: humanized anti-L1CAM antibody hz26A12C1H3L3 (antibody, V domains shown)
# VH: B28 VH
# VL: B28 VL with Y87F
# B33: humanized anti-L1CAM antibody hz26A12C1H4L3 (antibody, V domains shown)
# VH: B28 VH with A61N, E74K
# VL: B28 VL with Y87F
# B34: humanized anti-L1CAM antibody hz26A12C1H4L1 (antibody, V domains shown)
# VH: B28 VH with A61N, E74K
# VL: B28 VL with V33L, H55Q
# B35: humanized anti-L1CAM antibody hz26A12C1H2L1 (antibody, V domains shown)
# VH: B28 VH with I48M, L70I
# VL: B28 VL with V33L, H55Q
# B36: humanized anti-L1CAM antibody hz26A12C1H3L1 (antibody, V domains shown)
# VH: B28 VH
# VL: B28 VL with V33L, H55Q
# Target: T1, human L1CAM (L1 cell adhesion molecule), endogenously expressed on the surface of HeLa cells (human, UniProt P32004 20-1257)
# T1 construct: whole, on cells; also called CD171
# Assay: flow cytometry on HeLa cells (endogenous human L1CAM)
# Method: The experimental principle is as follows: HeLa cells express high levels of L1CAM protein on their surface. After incubating humanized L1CAM antibodies with the cells, the binding ability of the antibodies to L1CAM on the surface of HeLa cells can be determined by flow cytometry. The experimental method is descripted as following: Humanized L1CAM antibodies (Human IgG1-Kappa) are diluted in complete medium in a four-fold serial dilution, with seven concentration gradient points. HeLa cells are cultured in DMEM complete medium (Corning, 10-013-CVR) containing 10% FBS (Gibco, 10099-141) and 100 U/mL penicillin mixture (Thermofisher, 15140122). When the cell coverage in the culture container reaches 80-90%, TrypLE (Thermofisher, 12604-013) is used to digest the HeLa cells from the culture container, and they are seeded in a 96-well plate (AXYGEN, P-96-450V-C) at a density of 2.2×10⁶ cells/ml, with 100,000 cells (45 μL complete medium) per well. Then, 5 μL of the antibody dilution is added to each well, gently mixed, and the 96-well plate is incubated at 4° C. for 1 hour. Then, 150 μL of PBS solution containing 2% FBS (Corning, 21-040-CVC) is added to each well, centrifuged at 1400 rpm for 4 minutes, the supernatant is removed, and the wells are washed once more. Then, 50 μL of Alexa Flour 647-labeled goat anti-human fluorescent secondary antibody (Jacksonimmuno, 109-605-088) diluted 1:800 is added to each well, and the 96-well plate is incubated at 4° C. for 0.5 hours. The cells are washed twice with PBS solution containing 2% FBS, then resuspended in 120 μL of PBS, and the cell surface fluorescence signal is detected using a flow cytometer (BD FACS Celesta), obtaining the median fluorescence intensity (MFI). A dose-response curve is generated, and the half-maximal effective concentration (EC50) is calculated using non-linear regression with GraphPad software.
# T1 sequence (P32004 20-1257): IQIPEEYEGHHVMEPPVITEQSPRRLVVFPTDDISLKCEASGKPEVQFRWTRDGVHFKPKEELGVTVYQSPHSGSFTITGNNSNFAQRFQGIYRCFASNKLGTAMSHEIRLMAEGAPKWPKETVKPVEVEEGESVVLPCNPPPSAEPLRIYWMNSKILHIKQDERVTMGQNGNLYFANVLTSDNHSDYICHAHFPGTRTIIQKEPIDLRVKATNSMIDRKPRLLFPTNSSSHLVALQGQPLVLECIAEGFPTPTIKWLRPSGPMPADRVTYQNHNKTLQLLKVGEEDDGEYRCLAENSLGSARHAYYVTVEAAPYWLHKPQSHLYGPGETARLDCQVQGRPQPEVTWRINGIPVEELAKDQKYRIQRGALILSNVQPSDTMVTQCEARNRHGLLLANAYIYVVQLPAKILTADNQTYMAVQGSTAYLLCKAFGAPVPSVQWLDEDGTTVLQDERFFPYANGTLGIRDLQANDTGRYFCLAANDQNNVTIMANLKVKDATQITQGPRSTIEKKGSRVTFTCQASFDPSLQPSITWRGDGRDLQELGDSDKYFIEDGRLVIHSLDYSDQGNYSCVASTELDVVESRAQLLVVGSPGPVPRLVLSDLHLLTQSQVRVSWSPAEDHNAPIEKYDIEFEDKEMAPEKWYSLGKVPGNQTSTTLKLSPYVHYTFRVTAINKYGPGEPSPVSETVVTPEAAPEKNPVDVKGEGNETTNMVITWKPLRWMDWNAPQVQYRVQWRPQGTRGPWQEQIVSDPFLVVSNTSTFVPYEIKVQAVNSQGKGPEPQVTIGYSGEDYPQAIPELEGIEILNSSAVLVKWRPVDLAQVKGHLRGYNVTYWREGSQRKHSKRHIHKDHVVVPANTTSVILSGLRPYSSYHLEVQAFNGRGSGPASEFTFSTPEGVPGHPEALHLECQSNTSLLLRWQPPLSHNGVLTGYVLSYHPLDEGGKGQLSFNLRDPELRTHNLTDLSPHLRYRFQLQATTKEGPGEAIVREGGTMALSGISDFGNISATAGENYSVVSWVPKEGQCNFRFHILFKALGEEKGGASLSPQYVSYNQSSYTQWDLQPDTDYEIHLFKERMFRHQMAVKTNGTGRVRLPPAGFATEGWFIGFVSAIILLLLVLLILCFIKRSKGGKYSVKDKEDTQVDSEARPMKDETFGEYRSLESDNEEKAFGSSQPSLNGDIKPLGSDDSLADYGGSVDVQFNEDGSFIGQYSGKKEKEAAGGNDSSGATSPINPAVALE
row,EC50 [nM],Binder
1,1.05,B1
2,1.48,B2
3,5.32,B3
4,0.377,B4
5,5.56,B5
6,0.633,B6
7,2.03,B7
8,1.03,B8
9,0.676,B9
10,6.84,B10
11,1.06,B11
12,1.93,B12
13,2.13,B13
14,1.96,B14
15,0.82,B15
16,0.853,B16
17,6.59,B17
18,0.852,B18

row,EC50 [nM],Binder
1,9.27,B19
2,2.18,B20
3,0.404,B21
4,0.996,B22
5,2.15,B23
6,1.68,B24
7,24.3,B25
8,10.4,B26
9,2.06,B27
10,2.33,B28
11,0.853,B29
12,0.562,B30
13,7.82,B31
14,0.838,B32
15,0.738,B33
16,0.646,B34
17,24.7,B35
18,2.99,B36
